Measurements as given in patent US20230242675A1 (SHANGHAI EPIMAB BIOTHERAPEUTICS, published 2023).
Blank lines part the entries; values can stand above or below the binder they belong to.

Experiments:
[1] = biological target: T1, human PD-L1/His fusion protein (human, UniProt Q9NZQ7 19-239); experiment: BLI off-rate; test group 2 (reference itself)
Method: (§1) Briefly, antibodies were characterized for affinities and binding kinetics by Octet®RED96 biolayer interferometry (Pall ForteBio LLC). Antibodies were captured by Anti-hIgG Fc Capture (AHC) Biosensors (Pall) at a concentration of 100 nM for 30 seconds. Sensors were then dipped into running buffer (1×pH 7.2 PBS, 0.05% Tween 20, 0.1% BSA) for 60 seconds to check baseline. Binding was measured by dipping sensors into a single concentration of recombinant human PD-L1/His fusion protein (Novoprotein). Dissociation was followed by dipping sensors into running buffer for 1200 seconds. The association and dissociation curves were fitted to a 1:1 Langmuir binding model using ForteBio Data Analysis software (Pall). […] The off-rate ratio serves as a data normalization. Accordingly, in each test group, the off-rate ratios of the humanized antibodies can be compared with that of the chimeric antibody, and the off-rate ratios of each of the humanized antibodies can be compared to one another within all test groups.

[2] = biological target: T1, human PD-L1/His fusion protein; experiment: BLI off-rate; test group 3 (reference itself)
Method: as §1

[3] = biological target: T1, human PD-L1/His fusion protein; experiment: BLI off-rate; test group 1 (reference itself)
Method: as §1

[4] = biological target: T1, human PD-L1/His fusion protein; experiment: BLI Octet RED96, antibody on AHC sensor, single conc. PD-L1/His; test group 2
Method: as §1

[5] = biological target: T2, cynomolgus (cyno) PD-L1/His fusion protein (cynomolgus, UniProt G7PSE7 19-239); experiment: ELISA, coated cyno PD-L1 protein
T2 construct: also called cynomolgus PD-L1; not shown: His tag
Method: (§2) The ability of an antibody to bind human or cynomolgus (cyno) PD-L1 (binding activity) was determined by ELISA. ELISA plates were incubated overnight at 4° C. with 50 μl of the human or cyno PD-L1 protein described above diluted in PBS buffer, pH 7.4, at 1 μg/ml. Plates were washed four times in washing buffer (PBS containing 0.05% Tween 20) and blocked for 1 hour at 37° C. with 200 μl per well of blocking buffer (1% BSA in PBS containing 0.05% Tween 20). After blocking buffer was removed, diluted purified antibodies (200 nM and 1:5 serial dilutions to provide 7 concentrations of each antibody) were added to the wells at 100 μl per well and incubated at 37° C. for 1 hour. The wells were washed four times with washing buffer, and anti-human IgG (Fc-specific) HRP-conjugated antibody (Sigma), diluted 1:10,000, was added to the wells at 100 μl per well. The plates were incubated for 1 hour at 37° C. and washed four times in washing buffer. 100 μl of tetramethylbenzidine (TMB) chromogenic solution were added per well. Following color development, the reaction was stopped with 1 N HCl, and absorbance at 450 nm was measured on a VARIOSKAN™ LUX multimode microplate reader (ThermoFisher Scientific, Vataa, Finland). The data were processed by GraphPad software, and EC50 values were calculated. The EC50 for binding activity according to this ELSA is the concentration at which an antibody induces a response halfway between the baseline and maximum and indicates the binding ability of the antibody.

[6] = biological target: T1, human PD-L1/His fusion protein; experiment: BLI Octet RED96, antibody on AHC sensor, PD-L1/His in solution
Method: Binding of antibodies to PD-L1 was also assessed using biolayer interferometry (BLI) using an Octet® RED96 sensor device (Pall ForteBio LLC). Antibodies were captured by anti-hIgG Fc capture (AHC) Biosensors (Pall) at a concentration of 100 nM for 30 seconds. Sensors were then dipped into running buffer (1×pH7.2 PBS, 0.05% Tween 20, 0.1% BSA) for 60 seconds to check the baseline. Binding was measured by dipping sensors into a series of diluted concentrations of recombinant human PD-L1/His fusion protein. Dissociation was followed by dipping sensors into running buffer for 1200 seconds. The association and dissociation curves were fitted to a 1:1 Langmuir binding model using ForteBio Data Analysis software (Pall). The equilibrium dissociation constant KD (molarity) of the reaction between antibodies and related target proteins was then calculated from the kinetic rate constants using the formula KD=koff/kon.

[7] = biological target: human PD-L1/Fc Fusion Protein (human); experiment: RBA ELISA: coated PD-L1/Fc, competitor biotinylated human PD-1
Method: ELISA plates were coated with 100 μl of 1 μg/ml of human PD-L1/Fc in PBS and incubated overnight at 4° C. Plates were washed four times in washing buffer (PBS containing 0.05% Tween 20) and blocked for 1 hour at 37° C. with 200 μl per well of blocking buffer (1% BSA in PBS containing 0.05% Tween 20). […] A human IgG was included as negative control. The signal was developed by adding streptavidin-HRP (Cat. No. S2468, Sigma) (100 μl/well at 1:5000 dilution) and incubating for 40 minutes at 37° C., followed by washing four times in washing buffer. Then, 100 μl of TMB solution were added per well. Following color development, the reaction was stopped with 1 N HCl, and absorbance at 450 nm was measured. The data were processed by GraphPad software, and IC50 values were calculated. […] The signal reduction induced by antibody samples was normalized to inhibition percentage, where the negative control was 0% inhibition, and the absolute value of signal reduction of each antibody divided by the signal of the negative control equals the percent inhibition by the antibody.

[8] = biological target: T1, human PD-L1/His fusion protein; experiment: ELISA, coated human PD-L1 protein, anti-human Fc detection
Method: as §2

[9] = biological target: T1, human PD-L1/His fusion protein; experiment: BLI Octet RED96, antibody on AHC sensor, single conc. PD-L1/His; test group 4
Method: as §1

[10] = biological target: T2, cynomolgus (cyno) PD-L1/His fusion …; experiment: BLI Octet RED96, cyno PD-L1
[11] = biological target: T1, human PD-L1/His fusion protein; experiment: BLI Octet RED96, antibody on AHC sensor, single conc. PD-L1/His; test group 1
Method: as §1

[12] = biological target: T1, human PD-L1/His fusion protein; experiment: BLI Octet RED96, antibody on AHC sensor, single conc. PD-L1/His; test group 3
Method: as §1

[13] = biological target: T3, human PD-L1 on the cell surface (CHO-K1 cells stably expressing human PD-L1) (human, UniProt Q9NZQ7 19-290); experiment: FACS on CHO-K1/hPD-L1 cells
T3 construct: whole, on cells; Also used here for PD-L1 on the monocyte-derived dendritic cells of the MLR assay (functional rows); also called CHO-K1/PD-L1; CHOK1-PD-L1
Method: The ability of the purified antibodies to bind to cell membrane human PD-L1 was determined by FACS analysis. CHO-K1 cells stably expressing human PD-L1 (CHO-K1/hPD-L1 cells) were resuspended in PBS containing 2% FBS (FACS buffer) and seeded at 1×10⁵ cells/well into 96-well round-bottomed plates (Corning; Cat. No. 3799). […] The assay plate was then read on a flow cytometer. The data were processed by GraphPad software, and EC50 values were calculated. The EC50 for binding activity according to this FACS analysis is the concentration at which of an antibody induces a response halfway between the baseline and maximum and reflects the binding ability of the antibody.

[14] = biological target: T1, human PD-L1/His fusion protein; experiment: BLI off-rate; test group 4 (reference itself)
Method: as §1

T2 sequence (G7PSE7 entry or part of it): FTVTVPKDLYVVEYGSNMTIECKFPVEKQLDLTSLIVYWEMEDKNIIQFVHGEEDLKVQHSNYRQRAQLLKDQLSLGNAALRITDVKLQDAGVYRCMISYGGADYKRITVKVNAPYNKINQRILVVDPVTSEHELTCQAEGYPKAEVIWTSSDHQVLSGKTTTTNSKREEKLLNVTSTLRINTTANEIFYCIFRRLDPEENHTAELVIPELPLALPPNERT
human PD-L1/Fc Fusion Protein (human), sequence (chain, as listed by the source limits assumed): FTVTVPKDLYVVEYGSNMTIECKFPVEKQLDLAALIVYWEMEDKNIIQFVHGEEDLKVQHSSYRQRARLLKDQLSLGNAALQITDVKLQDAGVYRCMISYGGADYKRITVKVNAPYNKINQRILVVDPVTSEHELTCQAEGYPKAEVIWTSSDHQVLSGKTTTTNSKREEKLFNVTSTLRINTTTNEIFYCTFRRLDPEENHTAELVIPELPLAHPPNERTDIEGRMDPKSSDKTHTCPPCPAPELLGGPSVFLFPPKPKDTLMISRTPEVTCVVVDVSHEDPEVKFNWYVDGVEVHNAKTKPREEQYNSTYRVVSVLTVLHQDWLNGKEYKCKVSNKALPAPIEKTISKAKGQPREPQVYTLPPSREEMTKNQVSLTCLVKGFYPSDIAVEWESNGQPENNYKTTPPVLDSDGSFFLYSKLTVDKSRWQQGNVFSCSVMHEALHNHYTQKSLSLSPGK
T1 sequence (Q9NZQ7 19-239 limits assumed): as the sequence (G7PSE7 entry or part of it) above, with T33A, S34A, N62S, Q68R, R82Q, L173F, A185T, I192T, L215H counted along it
T3 sequence (Q9NZQ7 19-290): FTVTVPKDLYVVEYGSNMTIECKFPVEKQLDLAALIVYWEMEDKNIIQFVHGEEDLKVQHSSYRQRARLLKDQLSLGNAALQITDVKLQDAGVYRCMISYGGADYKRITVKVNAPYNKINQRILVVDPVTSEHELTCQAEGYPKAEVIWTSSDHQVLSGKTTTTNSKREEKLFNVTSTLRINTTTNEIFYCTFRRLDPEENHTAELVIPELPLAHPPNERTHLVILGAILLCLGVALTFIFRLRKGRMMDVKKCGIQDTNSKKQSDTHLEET

Off-Rate Ratio to that of EM0005-90c [1]: 100% | Off-Rate Ratio to that of EM0005-90c [2]: 100% | Off-Rate Ratio to that of EM0005-90c [3]: 100% | koff [4]: 0.000342 s⁻¹ | EC50 [5]: 0.12 nM | Kd [6]: 0.681 nM | IC50 [7]: 1.05 nM | Inhibition (percent) [7]: 94.4% | EC50 [8]: 0.15 nM | koff [9]: 0.00225 s⁻¹ | Kd [10]: 0.837 nM | koff [11]: 0.000253 s⁻¹ | koff [12]: 0.000382 s⁻¹ | EC50 [13]: 0.21 nM | Off-Rate Ratio to that of EM0005-90c [14]: 100%
B1: EM0005-mAb90c (antibody, human IgG1, kappa, V domains shown)
VH: QVQLKQSGAELVRPGSSVKMSCKTSGYTFTSHSINWVKQRPGQGLEWIGYMYIGNGYTEYNEKFKGKATLTSDTSSTTAYMQLSSLTSEDSAIYFCAKITPVVAPYVMDYWGQGTSVTVSS
VL: DIVMTQTHKFMSTSVGDRVSITCKASQDVGTAVAWYQQKPGQSPKLLIYWASTRHTGVPDRFTGSGSGTDFTLTISNVQSEDLADYFCQQYSSYPYTFGGGTKLELKR
notes: Chimeric full-length IgG1; also called EM0005-90c

Off-Rate Ratio to that of EM0005-87c [1]: 100% | Off-Rate Ratio to that of EM0005-87c [2]: 100% | Off-Rate Ratio to that of EM0005-87c [3]: 100% | koff [4]: 0.00104 s⁻¹ | EC50 [5]: 0.06 nM | Kd [6]: 0.981 nM | IC50 [7]: 0.94 nM | Inhibition (percent) [7]: 93.9% | EC50 [8]: 0.08 nM | koff [9]: 0.000897 s⁻¹ | Kd [10]: 0.493 nM | koff [11]: 0.00147 s⁻¹ | koff [12]: 0.00135 s⁻¹ | EC50 [13]: 0.42 nM | Off-Rate Ratio to that of EM0005-87c [14]: 100%
B2: EM0005-mAb87c (antibody, human IgG1, kappa, V domains shown)
VH: EVQLQQSGPELVKPGASVKISCKASGYSFTDYYINWVKQSPEKSLEWIGETIPNTGGTTYNQKFKAKATLTVDKSSSTAYMQLKSLTSEDSAVYYCARYQSGSPFAYWGQGTPVTVSS
VL: DIVMTQSQKFMSTTVGDRVSITCKASQNVGTAVAWYQQKPGQSPKLLIYSASNRYTGVPDRFTGSGSGTDFTLTISNMQSEDLADYFCQQHYSTPYTFGGGTKLEIKR
notes: Chimeric full-length IgG1; also called EM0005-87c
